In patent US20220204643A1 (published 2022):
Each block holds one binder with its values, some of them ahead of it.

Key:
Assay in all cases: protein array
nudix hydrolase 21 = target: T1, nudix hydrolase 21 (human, UniProt O43809 2-227)
T1 construct: on protein array; also called NUDT21

[1] = target: T2, zinc finger protein 431, transcript variant 2 (human, UniProt Q8TF32 1-576)
T2 construct: on protein array; also called ZNF431

Zinc finger protein 699 = target: T3, Zinc finger protein 699 (human, UniProt Q32M78 1-642)
T3 construct: on protein array; also called ZNF699
T3 sequence (Q32M78 whole entry): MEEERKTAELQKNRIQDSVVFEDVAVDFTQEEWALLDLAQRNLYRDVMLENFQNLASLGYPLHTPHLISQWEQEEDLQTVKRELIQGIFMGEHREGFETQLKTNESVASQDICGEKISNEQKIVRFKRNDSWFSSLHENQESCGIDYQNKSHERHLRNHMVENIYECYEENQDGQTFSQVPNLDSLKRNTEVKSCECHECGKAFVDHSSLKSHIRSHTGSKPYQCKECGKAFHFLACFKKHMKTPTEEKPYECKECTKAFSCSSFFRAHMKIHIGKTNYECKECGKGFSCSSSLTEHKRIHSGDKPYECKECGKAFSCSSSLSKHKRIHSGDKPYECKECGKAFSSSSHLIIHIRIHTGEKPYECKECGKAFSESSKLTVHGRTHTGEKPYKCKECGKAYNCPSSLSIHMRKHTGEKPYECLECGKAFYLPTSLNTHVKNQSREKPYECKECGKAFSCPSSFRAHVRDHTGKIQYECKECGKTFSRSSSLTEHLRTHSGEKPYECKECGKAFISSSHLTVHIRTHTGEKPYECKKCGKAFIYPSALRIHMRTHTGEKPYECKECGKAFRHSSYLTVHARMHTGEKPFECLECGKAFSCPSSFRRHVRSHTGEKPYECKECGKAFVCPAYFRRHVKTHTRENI

zinc finger protein 296 = target: T4, zinc finger protein 296 (human, UniProt Q8WUU4 1-475)
T4 construct: on protein array; also called ZNF296
T4 sequence: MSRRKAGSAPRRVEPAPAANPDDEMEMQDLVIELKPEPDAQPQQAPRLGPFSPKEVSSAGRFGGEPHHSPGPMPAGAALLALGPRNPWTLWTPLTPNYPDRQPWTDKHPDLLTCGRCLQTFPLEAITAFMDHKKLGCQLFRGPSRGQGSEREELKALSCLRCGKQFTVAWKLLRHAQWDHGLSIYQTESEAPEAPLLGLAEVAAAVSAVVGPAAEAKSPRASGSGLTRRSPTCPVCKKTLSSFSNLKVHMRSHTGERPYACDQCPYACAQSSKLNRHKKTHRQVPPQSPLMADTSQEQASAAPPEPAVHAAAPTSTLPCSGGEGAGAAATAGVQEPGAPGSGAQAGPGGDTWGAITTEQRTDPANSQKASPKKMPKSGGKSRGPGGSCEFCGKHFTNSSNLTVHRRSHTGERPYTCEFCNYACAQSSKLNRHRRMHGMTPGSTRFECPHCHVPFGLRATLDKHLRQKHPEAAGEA

[2] = target: phosphodiesterase 5A, transcript variant 1 (human, UniProt O76074 1-875)
PAGE family member 2 = target: T5, PAGE family member 2 (human, UniProt Q7Z2X7 1-111)
T5 construct: on protein array; also called PAGE2
T5 sequence: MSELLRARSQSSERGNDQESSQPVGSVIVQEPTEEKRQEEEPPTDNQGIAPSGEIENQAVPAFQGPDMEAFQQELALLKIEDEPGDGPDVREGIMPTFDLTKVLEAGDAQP

[3] = target: T6, keratin associated protein 12-3 (human, UniProt P60328 1-96)
T6 construct: on protein array; also called KRTAP12-3
T6 sequence: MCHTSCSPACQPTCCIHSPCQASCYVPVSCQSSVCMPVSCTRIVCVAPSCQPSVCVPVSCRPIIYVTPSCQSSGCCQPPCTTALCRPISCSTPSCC

Bcl2 like 1 = target: T7, Bcl2 like 1 (human, UniProt Q07817 1-233)
T7 construct: on protein array; also called BCL2L1
T7 sequence (Q07817 whole entry): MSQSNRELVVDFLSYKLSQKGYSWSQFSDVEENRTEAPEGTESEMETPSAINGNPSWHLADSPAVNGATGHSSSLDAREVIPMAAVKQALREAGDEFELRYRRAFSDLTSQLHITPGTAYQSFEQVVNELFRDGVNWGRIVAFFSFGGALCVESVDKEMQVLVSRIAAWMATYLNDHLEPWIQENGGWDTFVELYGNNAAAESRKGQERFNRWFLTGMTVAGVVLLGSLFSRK

[4] = target: T8, ubiquilin 1, transcript variant 2 (human, UniProt Q9UMX0 2-589)
T8 construct: on protein array; also called UBQLN1
T8 sequence (Q9UMX0 other isoform, or with tags, fused parts or gaps mutant limits assumed): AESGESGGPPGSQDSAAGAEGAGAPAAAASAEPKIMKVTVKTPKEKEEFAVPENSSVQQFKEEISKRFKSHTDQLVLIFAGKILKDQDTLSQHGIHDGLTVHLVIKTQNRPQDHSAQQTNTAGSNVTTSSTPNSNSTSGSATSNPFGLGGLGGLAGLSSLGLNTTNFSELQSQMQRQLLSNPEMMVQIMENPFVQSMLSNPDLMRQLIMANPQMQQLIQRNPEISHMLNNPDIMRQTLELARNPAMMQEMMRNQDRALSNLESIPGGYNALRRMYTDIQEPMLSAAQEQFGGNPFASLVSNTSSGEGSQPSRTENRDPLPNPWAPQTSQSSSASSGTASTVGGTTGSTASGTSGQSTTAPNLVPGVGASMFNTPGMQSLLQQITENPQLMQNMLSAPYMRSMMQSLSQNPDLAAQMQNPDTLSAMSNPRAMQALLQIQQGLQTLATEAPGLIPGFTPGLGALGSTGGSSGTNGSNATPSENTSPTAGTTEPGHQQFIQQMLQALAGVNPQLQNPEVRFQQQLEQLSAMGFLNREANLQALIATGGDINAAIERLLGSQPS

ubiquilin 2 = target: T9, ubiquilin 2 (human, UniProt Q9UHD9 2-624)
T9 construct: on protein array; also called UBQLN2
T9 sequence (Q9UHD9 2-624 limits assumed): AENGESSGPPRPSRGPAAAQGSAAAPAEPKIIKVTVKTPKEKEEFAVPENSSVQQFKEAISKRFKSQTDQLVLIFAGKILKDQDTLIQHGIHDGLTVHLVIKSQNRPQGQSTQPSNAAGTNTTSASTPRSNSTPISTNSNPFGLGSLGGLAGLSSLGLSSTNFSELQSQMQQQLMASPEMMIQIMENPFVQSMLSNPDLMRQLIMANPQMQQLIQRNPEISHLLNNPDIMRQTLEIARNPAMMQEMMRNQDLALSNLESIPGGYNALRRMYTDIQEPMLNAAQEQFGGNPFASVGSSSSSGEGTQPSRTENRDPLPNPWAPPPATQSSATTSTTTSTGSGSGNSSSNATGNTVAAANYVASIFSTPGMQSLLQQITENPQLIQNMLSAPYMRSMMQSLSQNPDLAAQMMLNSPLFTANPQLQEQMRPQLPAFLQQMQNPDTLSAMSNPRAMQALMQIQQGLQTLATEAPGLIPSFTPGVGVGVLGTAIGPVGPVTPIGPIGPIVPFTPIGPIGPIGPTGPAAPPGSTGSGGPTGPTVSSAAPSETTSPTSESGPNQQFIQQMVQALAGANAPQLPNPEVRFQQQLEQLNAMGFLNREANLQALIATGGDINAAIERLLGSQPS

Ubiquilin 3 = target: T10, Ubiquilin 3 (human, UniProt Q9H347 1-655)
T10 construct: on protein array; also called UBQLN3
T10 sequence: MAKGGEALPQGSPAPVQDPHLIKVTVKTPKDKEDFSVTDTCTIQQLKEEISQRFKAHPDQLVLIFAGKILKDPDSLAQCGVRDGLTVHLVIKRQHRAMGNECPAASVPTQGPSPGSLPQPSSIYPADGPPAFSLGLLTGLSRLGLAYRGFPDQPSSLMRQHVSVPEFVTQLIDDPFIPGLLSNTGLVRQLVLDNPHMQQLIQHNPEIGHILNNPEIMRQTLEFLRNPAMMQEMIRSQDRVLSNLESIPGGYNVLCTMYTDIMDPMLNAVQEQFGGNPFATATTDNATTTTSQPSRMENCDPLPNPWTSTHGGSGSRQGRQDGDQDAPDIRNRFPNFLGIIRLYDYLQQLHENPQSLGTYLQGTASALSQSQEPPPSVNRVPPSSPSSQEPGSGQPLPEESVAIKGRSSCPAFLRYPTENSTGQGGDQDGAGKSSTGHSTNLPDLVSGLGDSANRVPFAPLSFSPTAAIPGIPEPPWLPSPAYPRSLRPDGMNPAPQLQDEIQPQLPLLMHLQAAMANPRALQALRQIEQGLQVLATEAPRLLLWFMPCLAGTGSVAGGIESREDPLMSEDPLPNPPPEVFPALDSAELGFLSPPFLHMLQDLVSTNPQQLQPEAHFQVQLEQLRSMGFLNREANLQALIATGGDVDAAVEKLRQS

[5] = target: T11, microtubule associated scaffold protein 2, transcript variant 2 (human, UniProt Q5JR59 1040-1369)
T11 construct: on protein array; also called MTUS2
T11 sequence: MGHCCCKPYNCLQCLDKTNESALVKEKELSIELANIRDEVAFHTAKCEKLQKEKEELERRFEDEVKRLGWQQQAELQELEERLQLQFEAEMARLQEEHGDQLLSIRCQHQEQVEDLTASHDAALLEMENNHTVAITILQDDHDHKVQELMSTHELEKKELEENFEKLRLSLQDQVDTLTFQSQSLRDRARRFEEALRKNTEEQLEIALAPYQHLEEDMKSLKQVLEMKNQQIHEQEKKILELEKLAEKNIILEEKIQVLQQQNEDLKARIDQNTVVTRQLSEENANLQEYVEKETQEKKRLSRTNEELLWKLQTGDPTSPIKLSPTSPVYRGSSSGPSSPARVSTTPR

[6] = target: T12, arginine and glutamate rich 1 (human, UniProt Q9NWB6 1-273)
T12 construct: on protein array; also called ARGLU1
T12 sequence: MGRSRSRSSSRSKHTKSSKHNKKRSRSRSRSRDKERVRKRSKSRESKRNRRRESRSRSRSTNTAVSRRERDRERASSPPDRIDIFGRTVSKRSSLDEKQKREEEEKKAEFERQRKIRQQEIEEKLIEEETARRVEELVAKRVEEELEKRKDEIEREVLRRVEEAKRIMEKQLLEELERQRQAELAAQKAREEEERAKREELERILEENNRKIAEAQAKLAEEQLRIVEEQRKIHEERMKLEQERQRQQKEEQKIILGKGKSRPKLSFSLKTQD

[7] = target: T13, SAS-6 centriolar assembly protein, transcript variant 2 (human, UniProt Q6UVJ0 168-657)
T13 construct: on protein array; also called SASS6
T13 sequence: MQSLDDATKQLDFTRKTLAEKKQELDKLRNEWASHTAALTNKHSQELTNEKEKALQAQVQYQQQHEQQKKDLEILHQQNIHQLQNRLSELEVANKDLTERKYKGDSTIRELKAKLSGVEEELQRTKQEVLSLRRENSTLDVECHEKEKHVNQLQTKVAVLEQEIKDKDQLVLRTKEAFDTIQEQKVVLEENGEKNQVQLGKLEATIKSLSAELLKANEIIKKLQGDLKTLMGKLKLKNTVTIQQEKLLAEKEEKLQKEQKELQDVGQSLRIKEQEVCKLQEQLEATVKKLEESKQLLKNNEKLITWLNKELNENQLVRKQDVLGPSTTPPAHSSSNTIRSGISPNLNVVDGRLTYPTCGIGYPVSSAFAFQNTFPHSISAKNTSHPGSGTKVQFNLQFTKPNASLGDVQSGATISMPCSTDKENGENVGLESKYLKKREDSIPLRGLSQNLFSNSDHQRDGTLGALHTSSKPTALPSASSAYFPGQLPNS

[8] = target: T14, anterior gradient 3, protein disulphide isomerase family member (human, UniProt Q8TD06 22-166)
T14 construct: on protein array; also called AGR3
T14 sequence: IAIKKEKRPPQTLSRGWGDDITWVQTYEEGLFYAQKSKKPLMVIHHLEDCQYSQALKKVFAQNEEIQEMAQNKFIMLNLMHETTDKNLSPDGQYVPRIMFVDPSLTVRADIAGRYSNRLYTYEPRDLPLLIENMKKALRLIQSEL

enolase 2 = target: T15, enolase 2 (human, UniProt P09104 2-434)
T15 construct: on protein array; also called ENO2
T15 sequence (P09104 2-434 limits assumed): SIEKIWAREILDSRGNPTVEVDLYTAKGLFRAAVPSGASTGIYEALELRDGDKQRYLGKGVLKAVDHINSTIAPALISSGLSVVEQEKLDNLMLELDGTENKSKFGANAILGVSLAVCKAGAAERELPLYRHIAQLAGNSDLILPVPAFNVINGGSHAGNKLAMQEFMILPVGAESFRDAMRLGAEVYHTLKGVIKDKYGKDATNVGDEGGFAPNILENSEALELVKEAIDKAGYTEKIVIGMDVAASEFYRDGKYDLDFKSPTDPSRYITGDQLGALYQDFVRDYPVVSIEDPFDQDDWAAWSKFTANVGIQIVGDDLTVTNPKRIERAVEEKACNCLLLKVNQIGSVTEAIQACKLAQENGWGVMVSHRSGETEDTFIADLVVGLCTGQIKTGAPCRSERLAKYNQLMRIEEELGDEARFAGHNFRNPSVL

[9] = target: T16, proteasome 26S subunit, non-ATPase 4, transcript variant 2 (human, UniProt P55036 1-377)
T16 construct: on protein array; also called PSMD4
T16 sequence (P55036 whole entry, change not shown): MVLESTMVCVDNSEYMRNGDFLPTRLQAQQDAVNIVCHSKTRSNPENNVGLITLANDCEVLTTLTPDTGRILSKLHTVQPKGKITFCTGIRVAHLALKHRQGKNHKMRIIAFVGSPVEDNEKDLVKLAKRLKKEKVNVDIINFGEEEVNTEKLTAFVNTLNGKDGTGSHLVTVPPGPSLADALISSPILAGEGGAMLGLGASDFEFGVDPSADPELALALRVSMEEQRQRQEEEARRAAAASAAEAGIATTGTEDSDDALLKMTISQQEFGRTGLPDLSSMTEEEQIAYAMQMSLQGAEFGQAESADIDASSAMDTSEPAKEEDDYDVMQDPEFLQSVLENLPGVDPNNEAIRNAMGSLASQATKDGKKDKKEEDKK

[10] = target: T17, Src like adaptor, transcript variant 1 (human, UniProt Q13239 2-276)
T17 construct: on protein array; also called SLA
T17 sequence: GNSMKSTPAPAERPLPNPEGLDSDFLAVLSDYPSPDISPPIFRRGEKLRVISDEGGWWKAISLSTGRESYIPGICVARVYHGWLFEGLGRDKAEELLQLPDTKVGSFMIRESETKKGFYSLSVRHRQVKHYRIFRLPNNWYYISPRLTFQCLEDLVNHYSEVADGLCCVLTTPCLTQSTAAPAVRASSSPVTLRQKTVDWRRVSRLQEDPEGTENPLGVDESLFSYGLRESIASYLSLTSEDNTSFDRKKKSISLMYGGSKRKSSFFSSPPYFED

T1 sequence (O43809 2-227 limits assumed): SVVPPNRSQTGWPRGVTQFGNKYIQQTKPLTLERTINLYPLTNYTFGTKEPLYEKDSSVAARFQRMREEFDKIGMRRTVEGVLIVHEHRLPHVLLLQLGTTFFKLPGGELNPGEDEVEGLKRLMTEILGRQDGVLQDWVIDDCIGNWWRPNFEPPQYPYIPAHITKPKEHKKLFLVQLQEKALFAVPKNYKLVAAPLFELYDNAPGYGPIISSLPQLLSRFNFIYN
T2 sequence (Q8TF32 other isoform, or with tags, fused parts or gaps mutant limits assumed): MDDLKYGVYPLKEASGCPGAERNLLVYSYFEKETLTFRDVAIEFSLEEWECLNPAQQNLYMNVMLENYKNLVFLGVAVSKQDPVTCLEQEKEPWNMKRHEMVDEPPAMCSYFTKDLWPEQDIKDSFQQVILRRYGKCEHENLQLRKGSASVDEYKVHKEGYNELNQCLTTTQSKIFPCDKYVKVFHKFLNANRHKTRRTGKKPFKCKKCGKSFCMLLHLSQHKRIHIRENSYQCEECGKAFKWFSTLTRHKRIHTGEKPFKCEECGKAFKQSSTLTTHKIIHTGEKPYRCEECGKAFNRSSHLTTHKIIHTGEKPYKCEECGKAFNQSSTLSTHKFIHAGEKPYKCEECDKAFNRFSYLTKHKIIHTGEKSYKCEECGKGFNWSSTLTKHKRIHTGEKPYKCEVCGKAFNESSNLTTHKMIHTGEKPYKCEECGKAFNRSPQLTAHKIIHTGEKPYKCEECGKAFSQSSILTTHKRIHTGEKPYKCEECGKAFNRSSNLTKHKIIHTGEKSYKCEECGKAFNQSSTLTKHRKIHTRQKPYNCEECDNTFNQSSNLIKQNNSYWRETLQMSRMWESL

B1: TMEL1033 (antibody, V domains shown)
VH: PVQLQESGPGLVKPSETLSLTCTVSGGSVSSGSYYWSWIRQPPGKGLEWIGYIYYSGSTNYNPSLKSRVTISVDTSKNQFSLKLSSVTAADTAVYYCARDRGDYVTHWFDPWGQGTLVTVSS
VL: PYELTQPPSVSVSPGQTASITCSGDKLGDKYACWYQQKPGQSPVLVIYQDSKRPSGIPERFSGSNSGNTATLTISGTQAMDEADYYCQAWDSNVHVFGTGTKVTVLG
notes: VH/VL tied via antigen in summary, not by name in this stretch
binding result (nudix hydrolase 21): binds
binding result [1]: binds
binding result (Zinc finger protein 699): binds

B2: TMEL1028 (antibody, V domains shown)
VH: QVQLVQSGAEVKKPGASVKVSCKASGYTFTSYGISWVRQAPGQGLEWMGWISAYNGNTNYAQKLQGRVTMTTDTSTSTAYMELRSLTSDDTAVYYCARDQGLERANWFDPWGQGTLVTVSS
VL: not shown
notes: as for B1
binding result (zinc finger protein 296): binds
binding result [2]: binds

B7: TMEL1031 (antibody, V domains shown)
VH: EVQLVESGGGLVQPGGSLRLSCAASGFTVSSNYMSWVRQAPGKGLEWVSVIYSGGSTYYADSVKGRFTISRDNSKNTLSLQMNSLRAEDTAVYYCARESSAAGYDYWGQGTLVTVSS
VL: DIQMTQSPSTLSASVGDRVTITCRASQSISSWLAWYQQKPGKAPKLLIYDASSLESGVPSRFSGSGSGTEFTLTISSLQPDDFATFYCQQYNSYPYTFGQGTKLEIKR
notes: as for B1
binding result [6]: binds
binding result [7]: binds

B8: TMEL1020 (antibody, V domains shown)
VH: QVHLVQSGAEVKKPGASVKVSCKASGYTFTNYFIHWVRQAPGQGPEWMGVINPSFGSTTYAQKLQGRVTMTRETSTSTVYMELSSLRSEDTAVYYCARESLDSASYSTIAHWGQGTLVTVSS
VL: EIVLAQSPGTLYLSPGERATLSCRASQSVRGNYLAWYQQRPGQAPRLLIYGASSRATGIPDRFGGSGSGTDFTLTITRLLPEDFAVYYCHQYGSSPRTFGQGTKVEIKR
notes: as for B1
binding result [8]: binds

The remaining lines, values ahead:

binding result (PAGE family member 2): binds
binding result [3]: binds
B3: TMEL1035 (antibody, V domains shown)
VH: QVQLVESGGGVVQPGRSLRLSCAASGFTFSSYAMHWVRQAPGKGLEWVAVISYDGSNKYYADSVKGRFTISRDNSKNTLYLQMNSLRAEDTAVYYCASPIAVAAPFAYWGQGTLVTVSS
VL: VSSELTQDPAVSVALGQTVRITCQGDSLRSYYASWYQQKPGQAPVLVIYGKNNRPSGIPDRFSGSSSGNTASLTITGAQAEDEADYYCNSRDSSGNLYVFGTGTKVTVLG
notes: as for B1

binding result (Bcl2 like 1): binds
B4: TMEL1030 (antibody, V domains shown)
VH: QVQLQESGPGLVKPSGTLSLTCAVSGGSISSSNCWSWVRQPPGKGLEWLGEICHSGSTSYNPSLKSRVTISVDKSKNQFSLKLRSVTAADTAVYYCARESPLTVVFDYWGQGTLVTVSS
VL: DIQMTQSPSSLSASVGDRVTITCRASQGIRNDLGWFQQKPGKAPKRLIYAASNLPSGVSSRFSGSGSGTEFTLTISSLQPEDFATYYCLQHNNYPLTFGQGTKVEFKR
notes: as for B1

binding result [4]: binds
binding result (ubiquilin 2): binds
binding result (Ubiquilin 3): binds
B5: TMEL1018 (antibody, V domains shown)
VH: PLQLQESGPGLVKPSETLSLTCTVSGGSISSSSYYWGWIRQPPGKGLEWIGSIYYSGSTYYNPSLKSRVTISVDTSKNQFSLKLSSVTAADTAVYSCARLLVGGAFDIWGQGTMVTVSS
VL: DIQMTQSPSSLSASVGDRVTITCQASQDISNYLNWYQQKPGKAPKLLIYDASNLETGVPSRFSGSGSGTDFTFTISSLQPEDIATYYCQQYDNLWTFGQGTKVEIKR
notes: as for B1

binding result [5]: binds
B6: TMEL1027 (antibody, V domains shown)
VH: QVQLVQSGAEVKKPGASVKVSCKASGYTFTVYYMHWVRQAPGQGLEWMGRINPNSGGTNYAQKFQGRVTMTRDTSISTAYMELSRLTSDDTAVYYCARVVVVGTDYGMDVWGQGTTVTVSS
VL: VSSELTQDPAVSVALGQTVRITCQGDSLRSYYASWYQQRPGQAPVLVIYGKNNRPSGIPDRFSGSSSGNTASLTITGAQAEDEADYYCNSRDSSGNHVFGTGTKVTVLG
notes: as for B1

binding result (enolase 2): binds
B9: TMEL1037 (antibody, V domains shown)
VH: PLQLQESGPGLVKPSETLSLTCTVSGGSISSSSYYWGWIRQSPGKGLEWMGSIYYSGSTYYNPSLKSRVTISVDTSKNQFSLNLSSVTAADTAVYYCARHDYRNYFDYWGQGTLVTVSS
VL: not shown
notes: as for B1

binding result [9]: binds
binding result [10]: binds
B10: TMEL1032 (antibody, V domains shown)
VH: QVQLVQSGAEVRKPGASVKVSCKASGYTFTTYYIHWVRQAPGQGLEWMGLINPNGGTTNYAQKFQGRLSMTTDTSTNTVYMELSSLRSEDTAVYYCARKLMSGIVSRGWFDPWGQGTLVTVSS
VL: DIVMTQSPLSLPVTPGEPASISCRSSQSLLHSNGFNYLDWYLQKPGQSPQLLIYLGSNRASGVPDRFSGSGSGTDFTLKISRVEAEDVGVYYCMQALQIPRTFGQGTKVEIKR
notes: as for B1
